Literature values, collected in PMC4547496.

Columns and labels:
[1] = biological target: BAG family nucleotide exchange factor (Homo sapiens) (UniProt Q99933); experiment: FCPIA
Gαo (Homo sapiens) = Gαo (Homo sapiens) (UniProt P09471); experiment: FCPIA
Sequence of UniProt P09471 (P09471 2-354): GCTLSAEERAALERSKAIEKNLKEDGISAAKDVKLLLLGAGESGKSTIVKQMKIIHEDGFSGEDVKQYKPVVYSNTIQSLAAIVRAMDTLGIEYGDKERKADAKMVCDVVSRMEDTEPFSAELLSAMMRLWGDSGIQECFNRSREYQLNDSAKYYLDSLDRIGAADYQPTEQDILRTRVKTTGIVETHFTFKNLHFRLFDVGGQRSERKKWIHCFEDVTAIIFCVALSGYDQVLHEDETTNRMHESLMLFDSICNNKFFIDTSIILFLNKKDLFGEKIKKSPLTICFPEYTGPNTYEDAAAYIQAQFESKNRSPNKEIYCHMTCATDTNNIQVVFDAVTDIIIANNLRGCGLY

Sequence of UniProt Q99933 (Q99933 whole entry): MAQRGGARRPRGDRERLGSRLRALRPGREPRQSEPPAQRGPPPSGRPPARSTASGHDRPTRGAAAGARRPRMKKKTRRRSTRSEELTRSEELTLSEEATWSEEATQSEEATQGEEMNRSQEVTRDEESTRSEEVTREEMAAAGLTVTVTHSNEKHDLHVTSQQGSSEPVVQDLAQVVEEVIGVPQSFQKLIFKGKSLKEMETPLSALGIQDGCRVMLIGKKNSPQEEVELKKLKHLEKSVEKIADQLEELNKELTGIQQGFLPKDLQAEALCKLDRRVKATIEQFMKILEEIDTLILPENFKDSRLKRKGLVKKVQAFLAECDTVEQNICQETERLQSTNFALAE

| Kd [1] [nM] | Kd (Gαo (Homo sapiens)) [nM] | Substance |
| --- | --- | --- |
| 1000 | – | Hsp70 (from UniProt P0DMV8) |
| – | 4 | RGS4 (from UniProt P49798) |
